Patent publication US20140348834A1 (published 2014)
Read-outs that look alike come from different tables or passages of the source.

How the values were obtained:
human IL-17A [1] = molecular target: T1, human IL-17A (human, UniProt Q16552 24-155); assay: cell-based or functional assay
human IL-17A [2] = molecular target: T1, human IL-17A; assay: hIL17A ELISA
cynomolgus monkey IL-17A [3] = molecular target: T2, cynomolgus monkey IL-17A (cynomolgus monkey, UniProt A0A2K5TTB0 24-155); assay: cell-based or functional assay
T2 sequence (A0A2K5TTB0 entry or part of it): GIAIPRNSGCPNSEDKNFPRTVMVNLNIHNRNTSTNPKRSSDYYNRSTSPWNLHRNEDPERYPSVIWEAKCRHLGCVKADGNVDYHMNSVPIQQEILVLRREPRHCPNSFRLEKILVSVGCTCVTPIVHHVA

human IL-17A [4] = molecular target: T1, human IL-17A; assay: cell-based or functional assay; remark: listed apart in the source
human IL-17A [5] = molecular target: T1, human IL-17A; assay: cell-based or functional assay; remark: listed apart in the source
cynomolgus monkey IL-17A [6] = molecular target: T2, cynomolgus monkey IL-17A; assay: cell-based or functional assay; remark: listed apart in the source

T1 sequence (Q16552 24-155): as the sequence (A0A2K5TTB0 entry or part of it) above, with A3T, S8P, S34N, V77I, K78N, R104P counted along it

Binder | EC50 (human IL-17A [2]) | Potency (pM), IL-17-driven IL-6 production in HS27 cells (human IL-17A [5]) | further results
ML109-5C5 (antibody, V domains shown) VH: QVQLQQSGAELVRPGASVKLSCKALGYTFTDYEFHWVKQTPVHGLEWIGVIHPGNGGTAYNQNFRDKATLTADKSSSTAYMELSSLTSEDSGVYYCTRFLTYEGYFDYWGQGTALTVSS VL: NIVMTQTPKFLLVSPGDRVTITCKASQSVSIDVGWFQQKPGQSPKLLIYHASNRYTGVPDRFTGSGYGTDFTFTVNTVQAEDLAVYFCQQDYSSPYTFGGGTKLELKR |  |  | Potency (pM), IL-17-driven IL-6 production in HS27 cells (human IL-17A [1]): 23 pM
ML109-10G9 (antibody, V domains shown) VH: QVQLKESGPALVAPSQSLSFTCTISGFSLSSYGVHWVRQPPGKGLEWLVVIWSDGTTTYNSALKSRLSISKDNSKSQVFLKMNSLQTDDTAMYYCARDGYYIYTMDYWGQGTSVTVSS VL: DVVMTQTPLSLPVSLGDQASISCRSSQSLVHSNGNTYLHWYLQRPGQSPKLLIYKVSNRFSGVPDRFSGSGSGTDFTLKISRVEAEDLGLYFCSQGTHAPLTFGAGTKLELNR |  |  | Potency (pM), IL-17-driven IL-6 production in HS27 cells (human IL-17A [1]): 131 pM
IL17-h10F7.4 (antibody, V domains shown, IgG; constant regions not specified) VH: QVQLQQSGAELVRPGTSVTLSCKASGYIFTDYEIHWVKQTPVHGLEWIGVNDPESGGTFYNQKFDGKAELTADKSSSTAYMELRSLTSEDSGVYYCTRYYRYESFYGMDYWGQGTSITVSS VL: DIQLTQSPSSLSASVGDRVTITCSASSSISYIYWFQQKPGKSPKRWIYATFELASGVPSRFSGSGSGTDYTLTISSLQPEDFATYYCHQRSSYPWTFGQGTKLEIKR | 0.04 nM | 117 pM | 
m10F7hIgG1 (antibody, V domains shown) VH: QVQLQQSGAELVRPGTSVTLSCKASGYIFTDYEIHWVKQTPVHGLEWIGVNDPESGGTFYNQKFDGKAELTADKSSSTAYMELRSLTSEDSGVYYCTRYYRYESFYGMDYWGQGTSITVSS VL: QIVLTQSPAIMSASPGEKVTMTCSASSSISYIYWFQQKPGTSPKRWIYATFELASGVPARFSGSGSGTSYSLTISSMEAEDAATYYCHQRSSYPWTFGGGSKLEIKR |  | 40 pM | Potency (pM), IL-17-driven IL-6 production in HS27 cells (cynomolgus monkey IL-17A [6]): 79 pM
IL17-h10F7.13 (antibody, V domains shown, IgG; constant regions not specified) VH: EVQLVQSGAEVKKPGSSVKVSCKASGYTFTDYEIHWVRQAPGQGLEWIGVNDPESGGTFYNQKFDGRATLTADKSTSTAYMELSSLRSEDTAVYYCTRYYRYESFYGMDYWGQGTTVTVSS VL: QIVLTQSPSSLSASVGDRVTITCSASSSISYIYWFQQKPGKSPKRWIYATFELASGVPSRFSGSGSGTDYTLTISSLQPEDFATYYCHQRSSYPWTFGQGTKLEIKR | 0.1 nM | 242 pM | Potency (pM), IL-17-driven IL-6 production in HS27 cells (cynomolgus monkey IL-17A [6]): 429 pM

Now from value to binder, other results behind:

EC50 (human IL-17A [2]) | Potency (pM), IL-17-driven IL-6 production in HS27 cells (human IL-17A [5]) | Binder | further results
0.03 nM |  | IL17-h5C5.19 (antibody, V domains shown, IgG; constant regions not specified) VH: QVQLQQSGAELVRPGASVKLSCKALGYTFTDYEFHWVKQTPVHGLEWIGVIHPGNGGTAYNQNFRDKATLTADKSSSTAYMELSSLTSEDSGVYYCTRFLTYEGYFDYWGQGTALTVSS VL: NIVMTQSPATLSVSPGERATLSCKASQSVSIDVGWFQQKPGQSPRLLIYHASNRYTGVPARFSGSGSGTDFTLTISSLQPEDFAVYFCQQDYSSPYTFGQGTKLEIKR | Potency (pM), IL-17-driven IL-6 production in HS27 cells (cynomolgus monkey IL-17A [3]): 9 pM; Potency (pM), IL-17-driven IL-6 production in HS27 cells (human IL-17A [4]): 11 pM
0.04 nM | 293 pM | IL17-h10F7.9 (antibody, V domains shown, IgG; constant regions not specified) VH: QVQLQQSGAELVRPGTSVTLSCKASGYIFTDYEIHWVKQTPVHGLEWIGVNDPESGGTFYNQKFDGKAELTADKSSSTAYMELRSLTSEDSGVYYCTRYYRYESFYGMDYWGQGTSITVSS VL: EIVLTQSPDFQSVTPKEKVTITCSASSSISYIYWFQQKPDQSPKRWIYATFELASGVPSRFSGSGSGTDYTLTINSLEAEDAATYYCHQRSSYPWTFGQGTKLEIKR | 
